# Assay results taken from paper PMC3869376.
# What was measured:
# 14-3-3β [1] = target: 14-3-3β (UniProt P31946); assay: GST-14-3-3β pull-down from cell lysate; details: reference: HA-PDE3B wild type; sites S318
# 14-3-3β [2] = target: 14-3-3β (UniProt P31946); assay: DIG-GST-14-3-3β overlay on blotted immunoprecipitated PDE3B; details: reference: HA-PDE3B wild type; sites S318
# 14-3-3β, sequence (P31946 whole entry, looked up): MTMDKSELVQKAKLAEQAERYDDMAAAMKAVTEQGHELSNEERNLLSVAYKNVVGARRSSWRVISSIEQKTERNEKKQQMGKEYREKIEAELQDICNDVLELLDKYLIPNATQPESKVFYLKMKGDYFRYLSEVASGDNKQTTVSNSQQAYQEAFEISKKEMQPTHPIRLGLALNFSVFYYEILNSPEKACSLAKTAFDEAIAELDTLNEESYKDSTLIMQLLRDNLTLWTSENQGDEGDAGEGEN
substance,measurement,setting,value
PDE3B (phosphodiesterase 3B) (from UniProt Q13370-2) HA-PDE3B S318A,binding against the reference,14-3-3β [1],lost
same,binding against the reference,14-3-3β [2],lost
